Laboratory results from patent publication US8980614B2, “Staphylococcus haemolyticus prophage φSH2 endolysin is lytic for Staphylococcus aureus” (The United States of America, as represented by The …, priority 2012, dated 2015).

Assays:
[1] = test system: staphylococcal strains (MRSA strains, mastitis isolates, coagulase negative staphylococci); assay: Plate lysis assay, whole set of strains; type: cell-based, Staphylococcus; conditions: 100 to 3.125 pmoles spotted
Experimental: (§1) Purified proteins (100 pmoles in a 10 μl volume and five two-fold serial dilutions thereof) were spotted onto a freshly spread lawn of log phase staphylococcal cells (OD600 nm of 0.4-0.6, diluted ¼ before plating) that had air dried for 15 min on gridded TSA (tryptic soy agar) plates. The spotted plates were air dried for 10 min in a laminar flow hood and incubated overnight at 37° C. Cleared spots indicating cell lysis were scored within 24 hours of plating the cells.
(§2) The φSH2 full length enzyme and the A1 construct were further tested in plate lysis assays against a set of different staphylococcal strains, including MRSA strains (NRS 382-385), mastitis isolates (305, Tanji 1-26), and coagulase negative staphylococci (non S. aureus) (Table 2). The same molar amounts of both proteins (ranging from 100 pmoles to 3.125 pmoles, in a volume of 10 ul) were spotted onto lawns of mid log phase cells of the respective strains, and the plates were analyzed for lysis zones the next day.

[2] = test system: S. aureus Tanji 20; assay: Plate lysis assay; type: cell-based; conditions: 100 pmoles and 2-fold serial dilutions spotted on bacterial lawns
Experimental: as §1, §2

[3] = test system: S. aureus Tanji 26; assay: Plate lysis assay; type: cell-based; conditions: 100 pmoles and 2-fold serial dilutions spotted on bacterial lawns
Experimental: as §1, §2

[4] = test system: S. epidermidis; assay: Plate lysis assay; type: cell-based; conditions: 100 pmoles and 2-fold serial dilutions spotted on bacterial lawns
Experimental: as §1, §2

[5] = test system: S. aureus NRS 383; assay: Plate lysis assay; type: cell-based; conditions: S. aureus NRS 383 (MRSA); 100 pmoles and 2-fold serial dilutions spotted on bacterial lawns
Experimental: as §1, §2

[6] = test system: S. aureus NRS 382; assay: Plate lysis assay; type: cell-based; conditions: S. aureus NRS 382 (MRSA); 100 pmoles and 2-fold serial dilutions spotted on bacterial lawns
Experimental: as §1, §2

[7] = test system: S. aureus 305; assay: Plate lysis assay; type: cell-based; conditions: 100 pmoles and 2-fold serial dilutions spotted on bacterial lawns
Experimental: as §1, §2

[8] = test system: S. xylocus; assay: Plate lysis assay; type: cell-based; conditions: 100 pmoles and 2-fold serial dilutions spotted on bacterial lawns
Experimental: as §1, §2

[9] = test system: S. hyicus; assay: Plate lysis assay; type: cell-based
Experimental: as §1, §2

[10] = test system: S. aureus NRS 384; assay: Plate lysis assay; type: cell-based; conditions: S. aureus NRS 384 (MRSA); 100 pmoles and 2-fold serial dilutions spotted on bacterial lawns
Experimental: as §1, §2

[11] = test system: S. warneri; assay: Plate lysis assay; type: cell-based; conditions: 100 pmoles and 2-fold serial dilutions spotted on bacterial lawns
Experimental: as §1, §2

[12] = test system: S. aureus NRS 385; assay: Plate lysis assay; type: cell-based; conditions: S. aureus NRS 385 (MRSA); 100 pmoles and 2-fold serial dilutions spotted on bacterial lawns
Experimental: as §1, §2

[13] = test system: S. aureus Tanji 1; assay: Plate lysis assay; type: cell-based; conditions: 100 pmoles and 2-fold serial dilutions spotted on bacterial lawns
Experimental: as §1, §2

[14] = test system: S. simulans; assay: Plate lysis assay; type: cell-based
Experimental: as §1, §2

[15] = test system: S. aureus Tanji 19; assay: Plate lysis assay; type: cell-based; conditions: 100 pmoles and 2-fold serial dilutions spotted on bacterial lawns
Experimental: as §1, §2

[16] = test system: S. aureus Newman; assay: Plate lysis assay; type: cell-based
Experimental: as §1, §2

[17] = test system: S. chromogenes; assay: Plate lysis assay; type: cell-based; conditions: 100 pmoles and 2-fold serial dilutions spotted on bacterial lawns
Experimental: as §1, §2

[18] = test system: S. aureus Newman cells; assay: Zymogram with S. aureus Newman cells embedded in the gel; type: cell-based; conditions: 5 μg protein
Experimental: All purified proteins were analyzed with 15% SDS-PAGE, using a Kaleidoscope Precision Plus Protein Standard (BioRad, Hercules, Calif.). For zymograms, a 300 mL culture volume equivalent of live mid-log phase (OD600nm=0.4-0.6) cells of S. aureus strain Newman was embedded in the gel during polymerization. The protein samples were boiled in Laemmli sample buffer (BioRad) with β-mercaptoethanol, and electrophoresed with identical buffers and voltage for one hour in both the SDS-PAGE and the zymogram using a Mini-Protean TETRA gel system (BioRad). SDS gels were Coomassie stained and zymograms were washed in excess water and further incubated in deionized water for 60 min, followed by incubation in 10 mM Tris, pH 8.0 with 150 mM or 300 mM NaCl for 80 min. Areas of clearing in the turbid zymogram gel indicate a lytic protein in the gel.

[19] = test system: S. aureus Newman cells; assay: Turbidity reduction assay; type: cell-based, Staphylococcus aureus
Experimental: The turbidity reduction assay measures a decrease in optical density of a bacterial suspension due to lysis of the target bacteria by a lytic protein. The assays were performed in a 96-well dish format essentially as described previously (Donovan et al. 2006, supra). In order to reduce the variability of the assay, frozen stocks of S. aureus Newman substrate cells were prepared in a large batch as described by Becker et al. (2009b, supra). Immediately prior to the assay, the frozen cells were thawed, washed, and resuspended in the desired assay buffer such that when 100 μl of cell suspension were added to 100 μl of lysis buffer+/−protein, the final suspension has an OD600nm of ˜1.0.
Protein constructs were assayed at a concentration of 1 μM, and the assay was performed at room temperature, measuring the OD600nm at 1 min intervals for 45 min. Buffer without enzyme served as the control. The steepest slopes of the resulting lysis curves, which correspond to the lytic activities of the proteins, were determined by a sliding window over each group of three consecutive time points for the entire 45 min period. Specific activities were expressed as ΔOD600nm/min/μM, and the “no enzyme” control value was subtracted from each experimental value.
In order to determine the effect of salt concentration on lytic activity, turbidity reduction assays were performed in 10 mM Tris buffers at pH 7.5 with varying NaCl concentrations between 0 mM and 600 mM. Accordingly, the influence of pH was determined by using a series of different buffers with pH values ranging from 3.5 to 10.0. Citrate buffers were used for pH 3.5, 4.5, 5.5, and 6.0, MOPS buffers for pH 6.5, 7.0, and 7.5, Tris buffers for pH 8.0 and 9.0, and Carbonate/bicarbonate buffer for pH 10.0. The concentration of the buffer substance in all buffers used was 20 mM, and the NaCl concentration was 200 mM. To test the effect of bivalent metal ions, assays were performed in 10 mM Tris, 200 mM NaCl, pH 7.5 supplemented with MgCl2, MnCl2, or CaCl2 at different concentrations (0.1 mM, 1 mM, 10 mM), buffer without metal ions serving as control.

[20] = 100 pmoles and 2-fold serial dilutions spotted on bacterial lawns

B1: ΦSH2 A1: Truncation of φSH2 lysin (1-166), isolated CHAP domain, 6×His-tagged, from pφSH2_A1, SEQ ID NO:4 (protein)
chain: MKTQAEINKRLDAYRKGTVDSPYRVKVWTSYDNRFYPMEPGCIDVDKSFHAQCADLTIDYILWLTDNEFRIRGNAKDAINPKKNKLPEGWKIVLNRPSTVPRKGWIAVFTDGTYWEYGHIGMVYDGGNTSRFQILEQNWNGWANKKPSLRWDNYYGLTHFIVPPVALEHHHHHH
modifications: 6xHis tag; Bacteriophage Phi SH2
strains against which lytic activity was displayed ([1]; 16 strains tested): 13 out of 16 | MRSA strains lysed ([1]; four MRSA strains (NRS 382-385)): two MRSA strains | Lytic activity (lowest amount of protein producing a lysis zone) [2]: +++ (+++: 25 pmoles) | Lytic activity (lowest amount of protein producing a lysis zone) [3]: + (+: 100 pmoles) | Lytic activity (lowest amount of protein producing a lysis zone) [4]: − (‘−’ means that no lysis was observed at the highest amount tested (100 pmoles)) | Lytic activity (lowest amount of protein producing a lysis zone) [5]: − (‘−’ means that no lysis was observed at the highest amount tested (100 pmoles)) | Lytic activity (lowest amount of protein producing a lysis zone) [6]: ++ (++: 50 pmoles) | Lytic activity (lowest amount of protein producing a lysis zone) [7]: ++++ (++++: 12.5 pmoles) | Lytic activity (lowest amount of protein producing a lysis zone) [8]: ++ (++: 50 pmoles) | Lytic activity (lowest amount of protein producing a lysis zone) [9, 20]: ++++ (++++: 12.5 pmoles) | amount of protein causing a lysis zone ([9]; 100 to 3.125 pmoles spotted): 12.5 pmol | Lytic activity (lowest amount of protein producing a lysis zone) [10]: ++ (++: 50 pmoles) | Lytic activity (lowest amount of protein producing a lysis zone) [11]: ++ (++: 50 pmoles) | Lytic activity (lowest amount of protein producing a lysis zone) [12]: − (‘−’ means that no lysis was observed at the highest amount tested (100 pmoles)) | Lytic activity (lowest amount of protein producing a lysis zone) [13]: +++ (+++: 25 pmoles) | Lytic activity (lowest amount of protein producing a lysis zone) [14, 20]: +++ (+++: 25 pmoles) | amount of protein causing a lysis zone ([14]; 100 to 3.125 pmoles spotted): 25 pmol | Lytic activity (lowest amount of protein producing a lysis zone) [15]: +++ (+++: 25 pmoles) | Lytic activity (lowest amount of protein producing a lysis zone) [16, 20]: + (+: 100 pmoles) | amount of protein causing a lysis zone ([16]; 100 to 3.125 pmoles spotted): 100 pmol | Lytic activity (lowest amount of protein producing a lysis zone) [17]: ++ (++: 50 pmoles) | lysis in zymogram ([18]; after incubation in deionized water for 60 min): did not cause a lytic band | lysis in zymogram ([18]; water 60 min, then 10 mM Tris, 150 mM NaCl, pH 8.0 up to 80 min): intense lytic band | lytic (specific) activity compared with the full length φSH2 lysin ([19]; 1 μM protein, at optimum salt concentration): approximately three-fold higher | increase of lytic activity by Ca2+ ([19]; 1 mM CaCl2, relative to 0 mM, 10 mM Tris, 200 mM NaCl, pH 7.5): more than 6 fold | effect of Mg2+ on lytic activity ([19]; 0.1-10 mM MgCl2, 10 mM Tris, 200 mM NaCl, pH 7.5): not significantly alter | effect of Mn2+ on lytic activity ([19]; 0.1-10 mM MnCl2, 10 mM Tris, 200 mM NaCl, pH 7.5): slightly inhibitory effect
